Values quoted from earlier work in patent publication US20140179681A1, “METHODS AND COMPOSITIONS OF TARGETED DRUG DEVELOPMENT” (priority 2010, published 2014).

Molecular target: T1, EGF binding site (Rattus norvegicus, UniProt G3V6K6)
T1 construct: Receptor source was rat liver membranes; tissue NovaScreen BioSciences; host or cells: rat liver membranes
Details: radioligand of the inhibitor assays; rat liver membranes; read-out: KD (binding affinity)

B1: [^125I]EGF: "The radioligand was [^125I]EGF ([…]) at a final ligand concentration of 0.36 nM" (protein, UniProt P01133 23-1207, looked up)
Pro-epidermal growth factor: PQHWSCPEGTLAGNGNSTCVGPAPFLIFSHGNSIFRIDTEGTNYEQLVVDAGVSVIMDFHYNEKRIYWVDLERQLLQRVFLNGSRQERVCNIEKNVSGMAINWINEEVIWSNQQEGIITVTDMKGNNSHILLSALKYPANVAVDPVERFIFWSSEVAGSLYRADLDGVGVKALLETSEKITAVSLDVLDKRLFWIQYNREGSNSLICSCDYDGGSVHISKHPTQHNLFAMSLFGDRIFYSTWKMKTIWIANKHTGKDMVRINLHSSFVPLGELKVVHPLAQPKAEDDTWEPEQKLCKLRKGNCSSTVCGQDLQSHLCMCAEGYALSRDRKYCEDVNECAFWNHGCTLGCKNTPGSYYCTCPVGFVLLPDGKRCHQLVSCPRNVSECSHDCVLTSEGPLCFCPEGSVLERDGKTCSGCSSPDNGGCSQLCVPLSPVSWECDCFPGYDLQLDEKSCAASGPQPFLLFANSQDIRHMHFDGTDYGTLLSQQMGMVYALDHDPVENKIYFAHTALKWIERANMDGSQRERLIEEGVDVPEGLAVDWIGRRFYWTDRGKSLIGRSDLNGKRSKIITKENISQPRGIAVHPMAKRLFWTDTGINPRIESSSLQGLGRLVIASSDLIWPSGITIDFLTDKLYWCDAKQSVIEMANLDGSKRRRLTQNDVGHPFAVAVFEDYVWFSDWAMPSVMRVNKRTGKDRVRLQGSMLKPSSLVVVHPLAKPGADPCLYQNGGCEHICKKRLGTAWCSCREGFMKASDGKTCLALDGHQLLAGGEVDLKNQVTPLDILSKTRVSEDNITESQHMLVAEIMVSDQDDCAPVGCSMYARCISEGEDATCQCLKGFAGDGKLCSDIDECEMGVPVCPPASSKCINTEGGYVCRCSEGYQGDGIHCLDIDECQLGEHSCGENASCTNTEGGYTCMCAGRLSEPGLICPDSTPPPHLREDDHHYSVRNSDSECPLSHDGYCLHDGVCMYIEALDKYACNCVVGYIGERCQYRDLKWWELRHAGHGQQQKVIVVAVCVVVLVMLLLLSLWGAHYYRTQKLLSKNPKNPYEESSRDVRSRRPADTEDGMSSCPQPWFVVIKEHQDLKNGGQPVAGEDGQAADGSMQPTSWRQEPQLCGMGTEQGCWIPVSSDKGSCPQVMERSFHMPSYGTQTLEGGVEKPHSLLSANPLWQQRALDPPHQMELTQ
modifications: Pro-epidermal growth factor 125I label
Kd: 1.04 nM
